Source: US20260069707A1, “COMBINATION THERAPY WITH ANTIBODY-DRUG CONJUGATES AND HYALURONIDASES” (HALOZYME, INC., priority 2024, published 2026)
Values joined by “and” are separate entries in the source; they are usually repeats but may differ in a detail not shown here. Identical values can stand only once.

What was measured:
[1] = Post-injection bleb volume, area, height - caliper measurement; format: in vivo, Yucatan miniature pig (Sus scrofa domestica)
Method: The needle was inserted vertically into the marked injection site and the HVAI held in place by hand. Target needle insertion depth was ˜10 mm. Injections were timed using a stopwatch. Upon completion of the injection the needle was removed and the HVAI device discarded. Test solution back-leakage was then absorbed to a tared eye-spear for 30 seconds on the injection site and the weight of the eye spear was measured using an analytical balance. The margins of the injection site bleb were marked with a permanent marker and measured for length, width, and height using a digital caliper and recorded then photographed with the standard and 3D cameras. Caliper measurements and photographs were taken immediately post-injection. Local injection sites were qualitatively assessed and graded daily for erythema severity, swelling size appearance, and firmness, using a scoring system described in Table 4 Table 5, and Table 6, respectively.
Assessment of Local Swelling Volume and Area Using Caliper Measurement and 3D Imaging. Volume and area of post-injection swelling were measured using both caliper measurement and 3D camera image analysis. For caliper measurements a digital caliper was utilized to measure length, width and height of the bleb that formed post-injection. The length and width are defined as the edge to edge measurements of the bleb (i.e., diameter) along their longest axes. These values were manually recorded, and the volume determined using the formula for half of an ellipsoid Vol=(⅔)*π*A*B*C where A=Length/2, B=Width/2 and C=Height.
Assessment of Post-Injection Bleb Volume, Area and Height (Caliper Measurements). The local injection site swelling (bleb) was marked and measured using a digital caliper.

[2] = Enhertu analytes (TAB, TADC, free payload) in skin tissue homogenates of injection site; format: in vivo, Yucatan miniature pig (Sus scrofa domestica)
Method: Porcine serum was used as surrogate matrix to prepare calibration standards and quality controls for skin sample quantitation. Untreated blank porcine skin was provided for preparation of monitoring quality controls. The porcine skin was homogenized at an approximate ratio of 0.5 mL of buffer for every 100 mg of skin. […] The monitoring controls were analyzed during the method performance evaluation. The following were selected for monitoring in the assay (Table 83).
Porcine serum was used as surrogate matrix to prepare calibration standards and quality controls for the quantitation of skin samples. […] The porcine skin was homogenized at an approximate ratio of 0.5 mL of buffer for every 100 mg of skin. […] These were analyzed during the method performance evaluation.
This sample was divided vertically into two identical pieces. One skin sample was placed into a pre-weighed cryogenic tube and its weight was recorded then stored on dry ice prior to transfer to ≤−70° C. The other skin sample was processed for potential future histological assessment into OCT freezing media and frozen on dry ice.
Animals received two SC doses on their lower abdominal region.
Two cohorts were included in the follow-on study. […] Each animal had two full thickness skin biopsies taken post-mortem using a 12 mm punch. This sample was divided vertically into two identical pieces. One skin sample was placed into a pre-weighed cryogenic tube and its weight was recorded, then stored on dry ice prior to transfer to ≤−70° C. The other skin sample was processed into OCT molds for potential future histological assessment.
Tissue lysates were prepared based upon the weight of the sample at a ratio of 0.2 g/mL homogenization buffer (Tables 81 and 82). The total protein concentration of each homogenate was determined by BCA assay. The concentration of the total ADC (TADC), total antibody (TAB) and free payload (deruxtecan) in each sample was then normalized to the protein concentration and reported in μg analyte per mg total protein.
In this study, six animals were used. […] Two cohorts were included in this study. Cohort 1 was euthanized 24 hours after treatment, while Cohort 2 was euthanized 48 hours after exposure to the two test solutions.

[3] = Example 4 Study #1: bleb after 20 mL SC
[4] = Example 4 Study #2: bleb after 20 mL SC
[5] = 24 hours after SC administration
[6] = 48 hours after SC administration
[7] = SC, day 1, individual animal, listed as ADC
[8] = SC, day 2, individual animal, listed as ADC
[9] = SC, day 7, individual animal, listed as ADC
[10] = SC, individual series, listed as ADC

Sacituzumab govitecan [Trodelvy]
Height (mm) (Mean ± SEM) [1, 3]: 10.8 ± 0.6 mm | Volume (cc) (Mean ± SEM) [1, 3]: 65.5 ± 3.6 cc | Height (mm) (Mean ± SEM) [1, 4]: 10.8 ± 0.6 mm | Volume (cc) (Mean ± SEM) [1, 4]: 65.5 ± 3.6 cc | Post-injection bleb Area, caliper (Mean ± SEM) ([1]; minipig, 10 mL SC by HVAI, Trodelvy (ADC) ± rHuPH20 2000 U/mL, T0, n=3, Examples 1, 2, 5): 25.4 ± 0.5 | Post-injection bleb Volume, caliper (Mean ± SEM) ([1]; minipig, 10 mL SC by HVAI, Trodelvy (ADC) ± rHuPH20 2000 U/mL, T0, n=3, Examples 1, 2, 5 (FIG. 3: mL)): 44.3 ± 4.0 | Post-injection bleb Height, caliper (Mean ± SEM) ([1]; minipig, 10 mL SC by HVAI, Trodelvy (ADC) ± rHuPH20 2000 U/mL, T0, n=3, Examples 1, 2, 5 (FIG. 5: mm)): 8.7 ± 0.7 | Mean ADC in minipig skin [2, 5]: 24.21 | Mean antibody (Ab) in minipig skin [2, 5]: 27.65 | Mean payload in minipig skin [2, 5]: 0.02 | Mean ADC in minipig skin [2, 6]: 6.92 | Mean antibody (Ab) in minipig skin [2, 6]: 7.97 | Mean payload in minipig skin [2, 6]: 0.00 | Mean skin concentration, Free Payload ([2]; SC, 24 h post-injection): 0.02 μg/mg protein | Mean skin concentration, Total ADC (TADC) ([2]; SC, 24 h post-injection): 24.21 μg/mg protein | Mean skin concentration, Total Antibody (TAB) ([2]; SC, 24 h post-injection): 27.65 μg/mg protein | Mean skin concentration, Free Payload ([2]; SC, 48 h post-injection): 0.0042 μg/mg protein | Mean skin concentration, Total ADC (TADC) ([2]; SC, 48 h post-injection): 6.92 μg/mg protein | Mean skin concentration, Total Antibody (TAB) ([2]; SC, 48 h post-injection): 7.97 μg/mg protein | Mean skin concentration, Free Payload ([2]; SC, 168 h post-injection): 0.0004 μg/mg protein | Mean skin concentration, Total ADC (TADC) ([2]; SC, 168 h post-injection): 0.57 μg/mg protein | Mean skin concentration, Total Antibody (TAB) ([2]; SC, 168 h post-injection): 0.73 μg/mg protein | Concentration of free payload in the skin of minipigs [2, 7]: 0.026 ug/mg protein and 0.020 ug/mg protein and 0.011 ug/mg protein | Total ADC concentration in the skin of minipigs [2, 7]: 38.48 ug/mg protein and 22.00 ug/mg protein and 12.15 ug/mg protein | Total antibody concentration in the skin of minipigs [2, 7]: 44.05 ug/mg protein and 22.63 ug/mg protein and 16.28 ug/mg protein | Concentration of free payload in the skin of minipigs ([2]; SC, day 1, mean): 0.02 ug/mg protein | Total ADC concentration in the skin of minipigs ([2]; SC, day 1, mean): 24.21 ug/mg protein | Total antibody concentration in the skin of minipigs ([2]; SC, day 1, mean): 27.65 ug/mg protein | Concentration of free payload in the skin of minipigs [2, 8]: 0.003 ug/mg protein and 0.005 ug/mg protein (2×) | Total ADC concentration in the skin of minipigs [2, 8]: 5.97 ug/mg protein and 6.98 ug/mg protein and 7.80 ug/mg protein | Total antibody concentration in the skin of minipigs [2, 8]: 7.70 ug/mg protein and 8.07 ug/mg protein and 8.14 ug/mg protein | Concentration of free payload in the skin of minipigs ([2]; SC, day 2, mean): 0.00 ug/mg protein | Total ADC concentration in the skin of minipigs ([2]; SC, day 2, mean): 6.92 ug/mg protein | Total antibody concentration in the skin of minipigs ([2]; SC, day 2, mean): 7.97 ug/mg protein | Concentration of free payload in the skin of minipigs [2, 9]: 0.001 ug/mg protein and 0.000 ug/mg protein (2×) | Total ADC concentration in the skin of minipigs [2, 9]: 0.69 ug/mg protein and 0.48 ug/mg protein and 0.55 ug/mg protein | Total antibody concentration in the skin of minipigs [2, 9]: 0.68 ug/mg protein and 0.72 ug/mg protein and 0.79 ug/mg protein | Concentration of free payload in the skin of minipigs ([2]; SC, day 7, mean): 0.00 ug/mg protein | Total ADC concentration in the skin of minipigs ([2]; SC, day 7, mean): 0.57 ug/mg protein | Total antibody concentration in the skin of minipigs ([2]; SC, day 7, mean): 0.73 ug/mg protein | AUC1-7, free payload in skin [2, 10]: 0.024 ug*day/mL (2×) and 0.021 ug*day/mL | AUC1-7, total ADC in skin [2, 10]: 38.87 µg·days/mL and 33.14 µg·days/mL and 30.85 µg·days/mL | AUC1-7, total antibody in skin [2, 10]: 46.85 µg·days/mL and 37.33 µg·days/mL and 34.52 µg·days/mL | Cmax, free payload in skin [2, 10]: 26 ng/mL and 20 ng/mL and 11 ng/mL | Cmax, total ADC in skin [2, 10]: 38480 ng/mL and 22000 ng/mL and 12150 ng/mL | Cmax, total antibody in skin [2, 10]: 44050 ng/mL and 22630 ng/mL and 16280 ng/mL | AUC1-7, free payload in skin ([2]; SC, mean): 0.02 µg·days/mL | AUC1-7, total ADC in skin ([2]; SC, mean): 34.29 µg·days/mL | AUC1-7, total antibody in skin ([2]; SC, mean): 39.57 µg·days/mL | Cmax, free payload in skin ([2]; SC, mean): 20 ng/mL
